This data set has as its system Beacon (recombinant, expressed as GST-Beacon in E. coli, GST tag cleaved off with thrombin).
GST-CLK2 (recombinant human CLK2 fused to glutathione S-transferase, pGEX4T-1), sequence (chain, as listed by the source): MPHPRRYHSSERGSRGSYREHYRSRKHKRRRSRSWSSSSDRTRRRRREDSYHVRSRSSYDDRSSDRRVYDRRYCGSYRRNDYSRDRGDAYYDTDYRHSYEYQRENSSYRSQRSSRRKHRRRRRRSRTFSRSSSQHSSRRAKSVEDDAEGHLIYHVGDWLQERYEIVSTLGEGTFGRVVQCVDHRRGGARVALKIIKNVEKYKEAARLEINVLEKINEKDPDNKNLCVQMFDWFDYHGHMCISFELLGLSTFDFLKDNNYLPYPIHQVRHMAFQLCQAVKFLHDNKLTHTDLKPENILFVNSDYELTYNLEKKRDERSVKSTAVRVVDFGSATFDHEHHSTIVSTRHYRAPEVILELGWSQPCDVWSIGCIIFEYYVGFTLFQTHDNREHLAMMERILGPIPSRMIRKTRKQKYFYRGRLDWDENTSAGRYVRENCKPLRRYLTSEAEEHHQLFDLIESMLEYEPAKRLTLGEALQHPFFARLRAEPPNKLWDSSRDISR
GST-CLK1 (recombinant human CLK1 fused to glutathione S-transferase, pGEX4T-1), sequence (chain, as listed by the source): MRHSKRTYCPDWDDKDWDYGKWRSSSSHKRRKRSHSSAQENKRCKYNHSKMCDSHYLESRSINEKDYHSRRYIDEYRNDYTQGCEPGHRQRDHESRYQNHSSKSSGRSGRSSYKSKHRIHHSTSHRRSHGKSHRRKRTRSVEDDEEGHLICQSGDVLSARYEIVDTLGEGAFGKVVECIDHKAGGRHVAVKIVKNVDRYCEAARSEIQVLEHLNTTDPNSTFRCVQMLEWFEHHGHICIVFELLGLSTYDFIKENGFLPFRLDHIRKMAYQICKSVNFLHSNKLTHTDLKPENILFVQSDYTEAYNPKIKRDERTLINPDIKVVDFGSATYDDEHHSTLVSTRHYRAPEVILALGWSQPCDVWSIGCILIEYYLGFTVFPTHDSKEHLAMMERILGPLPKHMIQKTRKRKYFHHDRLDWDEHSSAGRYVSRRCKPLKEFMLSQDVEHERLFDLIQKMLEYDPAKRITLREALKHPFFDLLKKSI
GST-CLK4 (recombinant human CLK4 fused to glutathione S-transferase, pGEX4T-1), sequence (chain, as listed by the source): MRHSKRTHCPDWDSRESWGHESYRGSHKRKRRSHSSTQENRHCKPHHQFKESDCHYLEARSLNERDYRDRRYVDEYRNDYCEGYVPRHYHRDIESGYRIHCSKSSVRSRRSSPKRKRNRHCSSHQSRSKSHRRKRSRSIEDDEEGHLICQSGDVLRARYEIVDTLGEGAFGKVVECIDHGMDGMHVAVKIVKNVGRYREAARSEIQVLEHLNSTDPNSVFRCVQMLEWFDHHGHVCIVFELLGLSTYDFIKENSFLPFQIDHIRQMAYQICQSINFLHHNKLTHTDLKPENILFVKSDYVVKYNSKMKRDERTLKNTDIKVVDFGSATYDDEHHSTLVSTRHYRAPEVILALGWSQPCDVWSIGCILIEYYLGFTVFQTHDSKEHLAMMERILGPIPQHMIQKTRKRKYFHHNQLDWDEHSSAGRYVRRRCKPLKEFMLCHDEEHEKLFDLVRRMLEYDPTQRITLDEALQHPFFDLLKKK
Regarding “GST-CLK2 (recombinant human CLK2 fused to glutathione S-transferase, pGEX4T-1)”, the “phosphorylation of Beacon in kinase assay with [gamma-32P]-ATP” value (“phosphorylation of Beacon” for short) is “Beacon was not phosphorylated by any of the CLKs”.

As for “GST-CLK1 (recombinant human CLK1 fused to glutathione S-transferase, pGEX4T-1)”, the “phosphorylation of Beacon” value is “Beacon was not phosphorylated by any of the CLKs”.

For “GST-CLK4 (recombinant human CLK4 fused to glutathione S-transferase, pGEX4T-1)”, the “phosphorylation of Beacon” value is reported as “Beacon was not phosphorylated by any of the CLKs”.
